Measurements reported in publication doi:10.1101/2024.09.08.611708 (2024).

Molecular target: MpATG8A (M. polymorpha)
Experiment: ITC

MpATG8A (M. polymorpha), sequence (chain, as listed by the source): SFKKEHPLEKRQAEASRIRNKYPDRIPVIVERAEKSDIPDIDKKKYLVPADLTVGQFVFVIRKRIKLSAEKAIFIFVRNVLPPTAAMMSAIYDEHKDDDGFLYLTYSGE

**Q.** How did the Kd turn out when DWEIV [canonical AIM peptide (AIM wt)] was run?
**A.** Its Kd is 55.6 nM.
